Reference: patent US20090202980A1 (CROSSBETA BIOSCIENCES B V, published 2009)
Where “and” joins values, the source holds several entries; their conditions need not be identical. Equal values may be shown once.

B5: human factor XII (Hageman factor) (enzyme, UniProt P00748 20-615, looked up)
chain: IPPWEAPKEHKYKAEEHTVVLTVTGEPCHFPFQYHRQLYHKCTHKGRPGPQPWCATTPNFDQDQRWGYCLEPKKVKDHCSKHSPCQKGGTCVNMPSGPHCLCPQHLTGNHCQKEKCFEPQLLRFFHKNEIWYRTEQAAVARCQCKGPDAHCQRLASQACRTNPCLHGGRCLEVEGHRLCHCPVGYTGAFCDVDTKASCYDGRGLSYRGLARTTLSGAPCQPWASEATYRNVTAEQARNWGLGGHAFCRNPDNDIRPWCFVLNRDRLSWEYCDLAQCQTPTQAAPPTPVSPRLHVPLMPAQPAPPKPQPTTRTPPQSQTPGALPAKREQPPSLTRNGPLSCGQRLRKSLSSMTRVVGGLVALRGAHPYIAALYWGHSFCAGSLIAPCWVLTAAHCLQDRPAPEDLTVVLGQERRNHSCEPCQTLAVRSYRLHEAFSPVSYQHDLALLRLQEDADGSCALLSPYVQPVCLPSGAARPSETTLCQVAGWGHQFEGAEEYASFLQEAQVPFLSLERCSAPDVHGSSILPGMLCAGFLEGGTDACQGDSGGPLVCEDQAAERRLTLQGIISWGSGCGDRNKPGVYTDVAYYLAWIREHTVS
notes: also called FXII; fXII
B9: tPA-F-EGF-GST (finger and EGF domains of human tPA with C-terminal GST tag) (other, UniProt P00750 36-122, looked up)
chain: SYQVICRDEKTQMIYQQHQSWLRPVLRSNRVEYCWCNSGRAQCHSVPVKSCSEPRCFNGGTCQQALYFSDFVCQCPEGFAGKCCEID
notes: domain: F-EGF; also called F-EGF-tPA; not shown: vector residues and thrombin cleavage site; Schistosoma japonicum glutathion-S-transferase (GST) tag
B11: recombinant tissue-type plasminogen activator (tPA) (enzyme, human, UniProt P00750 36-562, looked up)
chain: SYQVICRDEKTQMIYQQHQSWLRPVLRSNRVEYCWCNSGRAQCHSVPVKSCSEPRCFNGGTCQQALYFSDFVCQCPEGFAGKCCEIDTRATCYEDQGISYRGTWSTAESGAECTNWNSSALAQKPYSGRRPDAIRLGLGNHNYCRNPDRDSKPWCYVFKAGKYSSEFCSTPACSEGNSDCYFGNGSAYRGTHSLTESGASCLPWNSMILIGKVYTAQNPSAQALGLGKHNYCRNPDGDAKPWCHVLKNRRLTWEYCDVPSCSTCGLRQYSQPQFRIKGGLFADIASHPWQAAIFAKHRRSPGERFLCGGILISSCWILSAAHCFQERFPPHHLTVILGRTYRVVPGEEEQKFEVEKYIVHKEFDDDTYDNDIALLQLKSDSSRCAQESSVVRTVCLPPADLQLPDWTECELSGYGKHEALSPFYSERLKEAHVRLYPSSRCTSQHLLNRTVTDNMLCAGDTRSGGPQANLHDACQGDSGGPLVCLNDGRMTLVGIISWGLGCGQKDVPGVYTKVTNYLDWIRDNMRP
notes: Commercial full-length recombinant tPA; also called Alteplase; Actilyse

Assays:
[1] = target: T1, human amyloid-β peptide Aβ(1-40) (human); assay: ELISA, coated ligand, anti-GST detection
T1 construct: also called hAβ(1-40); amyloid-β(1-40)
Experimental: FIG. 13. […] “Control,” medium before the pull-down, “Aβ,” washed amyloid Aβ pellet, after the pull-down, “Sup,” medium after extraction with Aβ. […] MΔIAPP was coated as non-amyloid negative control (Panel E). […] The same sections were incubated with Congo red (Panels I, K, and M) to locate amyloid deposits. Panels N and O: Pull-down assay with insoluble Aβ fibrils and finger domains. […] “Control,” medium before the pull-down, “Aβ,” washed amyloid Aβ pellet, after the pull-down, “Sup,” medium after extraction with Aβ.

[2] = target: B11; assay: ELISA, immobilized peptide, 10 mM εACA
[3] = target: B5; assay: ELISA, immobilized peptide
[4] = target: T2, Fn F4-5-GST (finger domains 4-5 of human fibronectin with C-terminal GST tag) (human; Schistosoma japonicum, UniProt P02751 182-276); assay: ELISA, immobilized peptide
T2 construct: domain: fibronectin type I domains 4-5; Printed in places as Fn F4-S-GST (a misprint of F4-5); also called Fn F4-S-GST; fibronectin F4-5; not shown: (G)RP vector residues and thrombin cleavage site; Schistosoma japonicum glutathion-S-transferase (GST) tag

[5] = target: B11; assay: ELISA, 25 µg/ml peptide immobilized on Exiqon plates
[6] = target: B9; assay: ELISA, 25 µg/ml peptide immobilized, excess εACA, anti-GST detection
[7] = target: B5; assay: ELISA, coated ligand, FXII concentration series, 10 mM εACA
Excerpt: (§1) Wells were coated in triplicate. […] Ten μg of the peptides that contain cross-β structure, as well as the negative control peptide MΔIAPP and phosphate-buffered saline (PBS), were spotted in duplicate onto methanol-activated nitrocellulose.

[8] = target: T1, human amyloid-β peptide Aβ(1-40); assay: ELISA, Aβ coated on plate, plasmin overlaid
[9] = target: T1, human amyloid-β peptide Aβ(1-40); assay: ELISA, coated ligand, FXII concentration series, 10 mM εACA
Excerpt: as §1

[10] = target: B5; assay: ELISA, factor XII immobilized, β2gpi concentration series, detection with antibody 2B2
[11] = target: B11; assay: ELISA, tPA immobilized, β2gpi concentration series, detection with antibody 2B2
[12] = target: T1, human amyloid-β peptide Aβ(1-40); assay: pull-down with Aβ fibrils, Western blot
Experimental: “Control,” medium before the pull-down, “Aβ,” washed amyloid Aβ pellet, after the pull-down, “Sup,” medium after extraction with Aβ. […] MΔIAPP was coated as non-amyloid negative control (Panel E). […] The same sections were incubated with Congo red (Panels I, K, and M) to locate amyloid deposits. Panels N and O: Pull-down assay with insoluble Aβ fibrils and finger domains. […] “Control,” medium before the pull-down, “Aβ,” washed amyloid Aβ pellet, after the pull-down, “Sup,” medium after extraction with Aβ.
Conditioned medium was used for pull-down assays using Aβ and IAPP fibrils, followed by Western blot analyses.

[13] = target: T1, human amyloid-β peptide Aβ(1-40); assay: ELISA, 25 µg/ml peptide immobilized, excess εACA, anti-GST detection
[14] = target: B5; assay: dot blot, 10 µg peptide spotted, 2 nM FXII
Excerpt: Ten μg of the peptides that contain cross-β structure, as well as the negative control peptide mΔIAPP and phosphate-buffered saline (PBS), were spotted in duplicate.

[15] = target: T3, advanced glycation end product-modified bovine serum albumin, glycated with glucose-6-phosphate (albumin-g6p) (bovine, UniProt P02769 25-607, glycated with glucose-6-phosphate (advanced glycation end products; 59 lysine and 23 arginine residues and the N-terminus are potential glycation sites)); assay: kD of tPA binding to coated albumin-AGE, quoted for the competitive ELISA
T3 construct: adopts cross-β structure; also called albumin-AGE; glycated albumin

[16] = target: T1, human amyloid-β peptide Aβ(1-40); assay: ELISA on Exiqon plates
[17] = target: T1, human amyloid-β peptide Aβ(1-40); assay: ELISA, Aβ coated on plate, tPA overlaid
[18] = target: T1, human amyloid-β peptide Aβ(1-40); assay: ELISA, 25 µg/ml peptide immobilized on Exiqon plates
[19] = target: T1, human amyloid-β peptide Aβ(1-40); assay: kD of tPA binding to coated hAβ(1-40), quoted for the competitive ELISA

T1 sequence (peptide, as listed by the source): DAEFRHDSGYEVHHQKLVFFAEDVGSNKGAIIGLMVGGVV
T2 sequence (P02751 182-276, tags left off): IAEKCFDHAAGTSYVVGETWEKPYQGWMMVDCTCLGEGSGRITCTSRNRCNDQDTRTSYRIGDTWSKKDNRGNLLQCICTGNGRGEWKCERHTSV
T3 sequence (P02769 25-607 limits assumed): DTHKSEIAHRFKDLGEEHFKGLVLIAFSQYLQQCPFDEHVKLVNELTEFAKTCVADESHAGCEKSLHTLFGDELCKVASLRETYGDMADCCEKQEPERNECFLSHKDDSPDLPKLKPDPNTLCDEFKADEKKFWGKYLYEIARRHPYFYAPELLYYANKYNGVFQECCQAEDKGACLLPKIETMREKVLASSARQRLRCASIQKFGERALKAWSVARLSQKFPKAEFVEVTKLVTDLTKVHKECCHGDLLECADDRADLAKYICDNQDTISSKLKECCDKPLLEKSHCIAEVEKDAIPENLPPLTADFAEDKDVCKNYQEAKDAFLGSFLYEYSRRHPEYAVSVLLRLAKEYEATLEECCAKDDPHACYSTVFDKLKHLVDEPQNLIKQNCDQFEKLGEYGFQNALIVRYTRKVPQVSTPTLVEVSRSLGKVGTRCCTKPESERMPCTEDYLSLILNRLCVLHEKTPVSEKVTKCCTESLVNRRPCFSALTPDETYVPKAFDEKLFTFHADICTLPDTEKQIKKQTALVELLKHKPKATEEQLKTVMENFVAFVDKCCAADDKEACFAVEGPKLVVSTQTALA

B1: tPA-F-GST (finger domain of human tPA with C-terminal GST tag) (other, UniProt P00750 36-85, looked up)
chain: SYQVICRDEKTQMIYQQHQSWLRPVLRSNRVEYCWCNSGRAQCHSVPVKS
notes: range 1-50; Expressed in 293T or BHK cells; Residues 1-50 count on mature tPA, not on the SwissProt precursor; also called tPA-F domain; F-tPA; not shown: (G)RP vector residues and thrombin cleavage site between domain and GST; Schistosoma japonicum glutathion-S-transferase (GST) tag
binding result [1]: binds

B2: amyloid fragment of transthyretin (TTR11) (peptide)
peptide: YTIAALLSPYS
binding result [2]: binds
binding result [3]: binds
binding result [4]: binds

B3: fibrin peptide 85 (FP13), human fibrin α-chain fragment α148-160 (peptide)
peptide: KRLEVDIDIKIRS
notes: also called fibrin fragment α147-159 FP13
Kd [5]: 5 nM
Kd [6]: 2 nM
Kd [7]: ~11 nM

B4: plasmin (activated plasminogen) (enzyme, UniProt P00747 97-810, looked up)
chain: KVYLSECKTGNGKNYRGTMSKTKNGITCQKWSSTSPHRPRFSPATHPSEGLEENYCRNPDNDPQGPWCYTTDPEKRYDYCDILECEEECMHCSGENYDGKISKTMSGLECQAWDSQSPHAHGYIPSKFPNKNLKKNYCRNPDRELRPWCFTTDPNKRWELCDIPRCTTPPPSSGPTYQCLKGTGENYRGNVAVTVSGHTCQHWSAQTPHTHNRTPENFPCKNLDENYCRNPDGKRAPWCHTTNSQVRWEYCKIPSCDSSPVSTEQLAPTAPPELTPVVQDCYHGDGQSYRGTSSTTTTGKKCQSWSSMTPHRHQKTPENYPNAGLTMNYCRNPDADKGPWCFTTDPSVRWEYCNLKKCSGTEASVVAPPPVVLLPDVETPSEEDCMFGNGKGYRGKRATTVTGTPCQDWAAQEPHRHSIFTPETNPRAGLEKNYCRNPDGDVGGPWCYTTNPRKLYDYCDVPQCAAPSFDCGKPQVEPKKCPGRVVGGCVAHPHSWPWQVSLRTRFGMHFCGGTLISPEWVLTAAHCLEKSPRPSSYKVILGAHQEVNLEPHVQEIEVSRLFLEPTRKDIALLKLSSPAVITDKVIPACLPSPNYVVADRTECFITGWGETQGTFGAGLLKEAQLPVIENKVCNRYEFLNGRVQSTELCAGHLAGGTDSCQGDSGGPLVCFEKDKYILQGVTSWGLGCARPNKPGVYVRVSRFVTWIEGVMRNN
Kd [8]: 47 nM

B5
Kd [9]: ~2 nM

B6: recombinant human β2-glycoprotein I (expressed in insect cells) (other, UniProt P02749 20-345, looked up)
chain: GRTCPKPDDLPFSTVVPLKTFYEPGEEITYSCKPGYVSRGGMRKFICPLTGLWPINTLKCTPRVCPFAGILENGAVRYTTFEYPNTISFSCNTGFYLNGADSAKCTEEGKWSPELPVCAPIICPPPSIPTFATLRVYKPSAGNNSLYRDTAVFECLPQHAMFGNDTITCTTHGNWTKLPECREVKCPFPSRPDNGFVNYPAKPTLYYKDKATFGCHDGYSLDGPEEIECTKLGNWSAMPSCKASCKVPVKKATVVYQGERVKIQEKFKNGMLHGDKVSFFCKNKEKKCSYTEDAQCIDGTIEVPKCFKEHSSLAFWKTDASDVKPC
notes: also called recombinant β2gpi; rβ2gpi
Kd [10]: 0.9 µg/mL and 20 nM
Kd [11]: 2.3 µg/mL and 51 nM

B7: laminin α1-chain(2097-2108) amyloid core peptide (LAM12) (peptide)
peptide: AASIKVAVSADR
binding result [2]: binds
binding result [3]: binds

B8: tPA K1-GST (kringle 1 domain of human tPA with C-terminal GST tag) (other, UniProt P00750 123-210, looked up)
chain: TRATCYEDQGISYRGTWSTAESGAECTNWNSSALAQKPYSGRRPDAIRLGLGNHNYCRNPDRDSKPWCYVFKAGKYSSEFCSTPACSE
notes: domain: K1; not shown: vector residues and thrombin cleavage site; Schistosoma japonicum glutathion-S-transferase (GST) tag
binding result [12]: no binding

B9
Kd [13]: 2 nM

B10: human IAPP amyloid core fragment (ΔhIAPP) (peptide)
peptide: SNNFGAILSS
notes: also called hΔIAPP; human amylin fragment
binding result [14]: binds

B11
Kd [15]: 1 nM
Kd [16]: 46 nM
Kd [17]: ~7 nM
Kd [18]: 2 nM
Kd [19]: 50 nM
